The values that follow come from patent US10286070B2, “Oncostatin M (OSM) antagonists for preventing cancer metastasis and IL-6 related disorders” (Boise State University, priority 2013, dated 2019).

Assay [1] relates to Du145 and PC3+STAT3 human prostate cancer cells. The assay is described as follows: OSM-induced detachment of human prostate cancer cells. It is filed as cell-based. Particulars: OSM 5 ng/mL, inhibitors 5 μM, 5 days. On the procedure:
FIGS. 15A and 15B. […] Detachment for FIG. 15A) Du145 and 15B) PC3+STAT3 human prostate cancer cells. 10,000 cells were plated in a 24-well plate in 1 mL complete media that was pre-incubated with OSM (5 ng/mL) and inhibitors (5 μM) for 1 hour. After 5 days, the detached cells were stained with Trypan Blue and counted using a hemocytometer.

The test system of assay [2] is pSTAT3, pJNK, pERK, and pAKT signaling. The assay is described as follows: Western blot analysis of downstream OSM signaling in MDA-MB-231 cell lysates. The assay is classed as cell-based, human. The following applies: MDA-MB-231 cells; 5 μM. (In general: A western blot detects proteins with antibodies after separation by electrophoresis.)
The test system of assay [3] is PC-3 prostate cancer cell line. Put plainly: Proliferation and detachment of PC-3 cells treated with OSM. It is filed as cell-based, human. The following applies: OSM 17.5 ng/ml. On the procedure: (§1) Prostate cancer cell lines DU-145 and PC-3 were plated in triplicate in complete RPMI media at a cell density of 1,000 cells/ml and allowed to adhere overnight. Cells were treated the next day with OSM at a concentration of 17.5 ηg/ml (untreated cells were used as a control). Both detached cells and total cells were counted on days 1, 3, 5, 7, and 9. Detached cells were collected, stained with trypan blue and viable cells were counted using a hemocytometer. Adherent cells were trypsinized, stained with trypan blue and viable cells were counted on a hemocytometer. To look at the effects of OSM on prostate cancer cell proliferation, the number of viable detached cells and adherent cells were added together to determine the total number of cells.

For assay [4], the system named is MDA-MB-231 D3H2LN luc2 cells. Put plainly: MDA-MB-231 D3H2LN luc2 orthotopic xenograft with peri-tumoral OSM injections. It is filed as in vivo, mouse. The procedure:
For xenograft models, six-week-old female nude mice were obtained from the National Cancer Institute's Animal Production Facility (Frederick, Md.). Non-surgical orthotopic injections were performed using 2.0×10^6 cells diluted in 50 μL of PBS containing 10% medium. When the tumors became palpable, mice were randomized into groups and began receiving per-tumoral injections. For peri-tumoral injections, either 50 μL PBS or 1 μg recombinant full length human OSM (Peprotech) diluted in 50 μL PBS was injected into the area surrounding the tumor three times per week until the end point of the experiment.
Detection of human circulating tumor cells (CTCs) in mouse blood was performed. Human DNA standard curve was prepared by adding a specified number of human MDA-MB-231 cells into mouse blood and the DNA isolated for use in the qPCR reactions. Whole DNA was isolated from 100 μl of whole blood collected from mice at the end of the experiment. DNA was isolated using DNeasy Blood & Tissue kit (Quiagen Cat#) using the manufacturer's standard instructions. DNA concentrations were normalized between each sample and 4.5 ng of DNA was added to each 25 μl qPCR reaction. qPCR reaction mixture was obtained from the GoTaq qPCR Master Mix (Promega, Cat#TM318, Madison Wis.), and reaction mixtures were prepared in accordance with manufacturer recommendations. 0.125 μl of 100 μM primers for human Alu fragment, and for GAPDH was added to each reaction. The primer sequences used for Alu was (s:[…] a:[…]) and for
GAPDH the sequence used was (s: […]; a: […]). The qPCR reaction was done with SYBR green chemistry using a CXR reference dye and ran on an Applied Biosystems AB7300 real-time thermocycler. Reaction conditions were: 50° C. for 2 minutes, 95° C. for 3 minutes and 40 cycles of: (95° C. 00:15, 60° C. 00:30, 72° C. 00:30) and fluorescence measurements were taken during the annealing temperature stage (60° C.). cT values were determined and the final results were normalized to GAPDH signal levels.
BLI of live animals was initiated at 13 days after cell line injection and performed weekly. Three to five mice were imaged at one time. Ex vivo organs were also imaged using BLI. Both procedures follow our previously described protocols.
To determine the influence of OSM in human breast cancer, we used a xenograft model. MDA-MB-231 D3H2LN luc2 cells were injected into the fourth mammary fat pads of female nude mice. After the tumors were palpable, OSM (1 μg) or PBS were injected peri-tumorally 3 times per week (FIG. 6A), and mice were monitored until the end-point criteria were met. Tumor size was measured using calipers three times per week for the duration of the experiment and expressed as tumor volume (mm^3)=[…]. […] Next, BLI intensity of the cells was assessed in vivo. The BLI intensities of the tumors from both groups were similar with variations in intensities in both groups (FIG. 6C). A few mice in both groups had lower BLI intensities due to tumor necrosis.
Ex vivo analysis of the lungs was performed. […] Next, quantification of the BLI intensities of the lungs was performed.
Our studies on detecting CTCs involve the usage of the Alu transposon repeats for detecting human cells in mouse blood, and with colony forming assays that detects all transformed cells in the blood. […] In order to detect circulating tumor cells in the mouse circulatory system, DNA was isolated from mouse blood, and human alu fragment concentrations were determined in the blood by qPCR. […]

The subject of assay [5] is DU-145 prostate cancer cell line. Put plainly: Matrigel invasion assay, DU-145. It is filed as cell-based, human. On the procedure:
(§2) FIG. 14. Invasive Potential for the DU-145 and PC-3 Prostate Cancer Cell Lines.
(§3) Invasion potential was also measured. OSM increased the invasion potential of both DU-145 and PC-3 cell lines (FIG. 14).

For assay [6], the system named is PC-3 prostate cancer cell line. Put plainly: Matrigel invasion assay, PC-3. It is filed as cell-based, human. The procedure:
as §2, §3

Assay [7] deals with DU-145 prostate cancer cell line. The assay is described as follows: Proliferation, detachment and morphology of DU-145 cells treated with OSM. The following applies: OSM 17.5 ng/ml. The assay is classed as cell-based, human. The procedure:
as §1
The Epithelial-Mesenchymal Transition (EMT) was also measured. During the proliferation and detachment assays detailed above, micrographs of the DU-145 cells were taken at day 5 before cells were collected and counted.

In assay [8] the test system is OSM-induced phosphorylation of STAT3 on Tyr-705 (pSTAT3). Put plainly: pSTAT3 ELISA after OSM stimulation. The assay is classed as cell-based. The following applies: human breast cancer cells; OSM 25 ng/ml, 30 minutes. The text has this:
FIGS. 16A-16D. […] This method can be used for in vitro screening of lead compounds that inhibit OSM signaling. […] Cell lysates were collected and pSTAT3 levels were measure by ELISA.
Next an enzyme-linked immunosorbent assay (ELISA) for analyzing initial OSM-induced phosphorylation of STAT3 on Tyr-705 (pSTAT3) will be employed for the initial screen. […] The ability of the top 100 OSM-SMIs to inhibit OSM-OSMR interactions that result in expression of pSTAT3 will be evaluated by this assay and cells will be pretreated with the OSM-SMIs for 2 hours prior to the addition of OSM. As positive controls, neutralizing antibodies to human OSM or human gp130 will establish baseline pSTAT3 levels in the ELISA assay (FIG. 16A).
Actual physiological levels of OSM may be much lower than the nanogram levels used here. […] Therefore, testing inhibitors using lower concentrations of OSM may better allow for the detection of Effects at physiologically relevant concentrations.
Additionally, a functional dose response curve for OSM-SMI activity will be generated through 2 log units of concentration of compounds and used to establish the dynamic range of OSM-SMI activity. This will be used to determine the half maximal inhibitory concentration (IC50) as well as the minimum effective concentration (Ceff) for each compound.
(In general: An ELISA detects its analyte on a solid surface through an enzyme-linked reagent.)

The test system of assay [9] is IL-6. Put plainly: IL-6 ELISA on conditioned media of OSM treated human breast cancer cell lines. The assay is classed as cell-based. Particulars: OSM 25 ηg/ml, 48 hours. On the procedure:
(§4) 1×10^5T47D, MDA-MB-231, MCF7, MDA-MB-468, or 4T1.2 cells were plated in multi-well plates in the presence or absence of OSM for […]. Conditioned media was collected, diluted 1:5 and an IL-6 ELISA was performed as according to the manufacturer's recommended instructions.
(§5) OSM induced IL-6 expression was studied on various cell lines including two ER+ cell lines, T47D and MCF7, and three ER− cell lines MDA-MB-468, MDA-MB-231, and 4T1.2 cells. rhOSM was used for the four human cell lines at a concentration of 25 ηg/ml while rmOSM was used for the 4T1.2 cells at a concentration of 25 ηg/ml. The cells were incubated in OSM for a total of 48 hours and IL-6 levels in the conditioned media was assessed by ELISA. […] In the 4T1.2 mouse mammary cancer cells, OSM induced IL-6 by approximately 4-fold (FIG. 7). To test if OSM induced IL-6 in vivo, tumors from the MDA-MB-231 injected mice were lysed, homogenized, and the IL-6 levels were analyzed by ELISA.

Assay [10] has as its system IL-6. Put plainly: IL-6 ELISA on conditioned media of OSM treated 4T1.2 cells. It is filed as cell-based, mouse. Particulars: rmOSM 25 ηg/ml, 48 hours. The procedure: as §4, §5

Entries after “also recorded” stand apart in the source; their conditions may differ.

With `O=[N+]([O-])c1c(/C=N/Nc2ccccc2)oc(-c2ccc3c(c2)OCO3)c1-c1ccc2c(c1)OCO2` [OSM-SMI-10], the OSM-induced detachment result in assay [1] was “decrease OSM-induced detachment”. For the same molecule, the “inhibition of OSM downstream signaling” value in [2] is given as “inhibited signaling to various extents”.

With `Cc1nc(C(N)=S)sc1C(=O)CC(=O)C(=O)Nc1nc2ccccc2[nH]1` [OSM-SMI-11], the OSM-induced detachment entry in [1] is “decrease OSM-induced detachment”. In assay [2], the “inhibition of OSM downstream signaling” value is recorded as “inhibited signaling to various extents”.

B1: OSM: Oncostatin M, IL-6 family cytokine; recombinant human OSM used as stimulus on cells and by peri-tumoral injection (protein, listed as Homo sapiens)
chain: MGVLLTQRTLLSLVLALLFPSMASMAAIGSCSKEYRVLLGQLQKQTDLMQDTSRLLDPYIRIQGLDVPKLREHCRERPGAFPSEETLRGLGRRGFLQTLNATLGCVLHRLADLEQRLPKAQDLERSGLNIEDLEKLQMARPNILGLRNNIYCMAQLLDNSDTAEPTKAGRGASQPPTPTPASDAFQRKLEGCRFLHGYHRFMHSVGRVFSKWGESPNRSRRHSPHQALRKGVRRTRPSRKGKRLMTRGQLPR
Take B1: the detachment entry in assay [3] was “not and did not show increased detachment”; in assay [7] (5 days, versus untreated cells), “significantly increased; also recorded: increased detachment”. Further, the proliferation result in assay [3] is “not and did not show increased proliferation”; in assay [7] (5 days, versus untreated cells), “significantly increased; also recorded: increased proliferation”. For the same molecule, the “metastatic volume within the lungs” value in assay [4] (ex vivo analysis, peri-tumoral OSM versus PBS) is listed as “larger metastatic volume”. Besides, the “BLI intensities of the lungs, OSM injected group higher than PBS injected group” value in [4] (ex vivo lungs, orders of magnitude) is given as 10^2. The “tumor volume versus PBS group” value in [4] (female nude mice, OSM 1 μg peri-tumorally 3 times per week) is recorded as “did not differ”. Besides, the “ex vivo lung BLI intensity versus PBS injections” value in [4] (female nude mice, peri-tumoral OSM) turned out to be 200 fold. The “increase in number of circulating tumor cells per 100 μl of mouse blood” value in assay [4] (human Alu qPCR, versus animals without OSM injections) amounted to 3.5 fold. In addition, the invasion potential entry is listed as “increased invasion potential” in assay [5] (OSM 17.5 ng/ml, 24 hours) and “increased invasion potential” in [6] (OSM 17.5 ng/ml, 24 hours). Moreover, the “treated cells showing an invasive potential” value in [5] (OSM treated DU-145 cells) was “Twenty three”; in assay [6] (OSM treated PC-3 cells) it was 21%. The “increase in invasive potential versus untreated” value in assay [6] (PC-3 cells pretreated with OSM for 72 hours) is recorded as 4 fold. Further, the “morphology (EMT)” value in [7] (day 5) is listed as “more mesenchymal morphology; also recorded: mesenchymal orphology characteristic of having undergone EMT”. Also, the “induction of pSTAT3 by OSM” value in [8] was “induced pSTAT3; also recorded: induce pSTAT3 expression”. Besides, the “IL-6 induction by OSM” value is recorded as “did not change” in assay [9] (MCF7 cells (ER+)); “did not induce IL-6” in [9] (MCF7 cells (ER+), listed as rhOSM); 4-5 fold in assay [9] (MDA-MB-231 cells); “approximately 4 fold” in assay [9] (MDA-MB-231 cells, listed as rhOSM); 4-5 fold in assay [9] (MDA-MB-468 cells); “approximately 5 fold” in assay [9] (MDA-MB-468 cells, listed as rhOSM). The “IL-6 induction by OSM” value in [9] (T47D cells (ER+)) is “did not change”; in [9] (T47D cells (ER+), listed as rhOSM), “did not induce IL-6”; in assay [10], 4-5 fold.

B2: rmOSM: recombinant mouse OSM used for the 4T1.2 cells (protein, UniProt P53347 25-206, looked up)
Oncostatin-M: NRGCSNSSSQLLSQLQNQANLTGNTESLLEPYIRLQNLNTPDLRAACTQHSVAFPSEDTLRQLSKPHFLSTVYTTLDRVLYQLDALRQKFLKTPAFPKLDSARHNILGIRNNVFCMARLLNHSLEIPEPTQTDSGASRSTTTPDVFNTKIGSCGFLWGYHRFMGSVGRVFREWDDGSTRSRR
With B2, the “IL-6 induction by OSM” value in assay [10] is “approximately 4 fold”.
